Experimental findings from patent US20250361322A1 (ICONIC THERAPEUTICS, published 2025) are described below.

Where a chain is given by its changes, count along the chain named. Where two headings read alike, the source gives them in different places.

One test deals with T1, E. coli-derived TF (human (Example 17 does not restate the …, UniProt P13726 33-251)).
T1 construct: also called E. coli-derived TF-His; E. coli-derived TF protein
Description: protein ELISA, plate coated with E. coli-derived TF-His, antibody titrated, HRP secondary, luminescence.

The target of test [1] is T2, Macaca mulatta TF on RF/6A cells (Macaca mulatta (protein sequence stated …, UniProt P13726 33-294 (human entry))).
T2 construct: Endogenous TF of the RF/6A cell line; also called TF-positive Macaca mulatta RF/6A cells; cynomolgus TF
T2 chain: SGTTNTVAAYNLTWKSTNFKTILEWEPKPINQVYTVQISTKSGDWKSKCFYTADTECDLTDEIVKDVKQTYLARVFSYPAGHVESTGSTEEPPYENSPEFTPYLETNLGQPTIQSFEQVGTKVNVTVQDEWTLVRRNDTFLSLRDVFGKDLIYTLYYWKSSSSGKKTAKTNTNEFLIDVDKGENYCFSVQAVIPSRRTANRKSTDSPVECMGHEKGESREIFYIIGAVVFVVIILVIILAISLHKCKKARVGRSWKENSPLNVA
The experiment in a line: flow cytometry, IgG1 titrated on TF-positive Macaca mulatta RF/6A cells, 4-parameter fit.
Description: (§1) After 2 washes, dead cells were labeled with TO-PRO-3 Iodide (ThermoFisher Scientific) and samples were analyzed on a CytoFLEX flow cytometer (Beckman Coulter, Brea, CA, USA) or Novocyte flow cytometer (ACEA Biosciences, San Diego, CA, USA). The median fluorescence intensities (MFIs) at each dilution were plotted and cell EC₅₀'s were derived using a 4-parameter binding model in Prism (GraphPad, La Jolla, CA, USA).

Test [2] deals with T3, Relipidated TF (UniProt P13726 33-295, limits assumed). Description: cell-based or functional assay.
In test [3] the target is T3, Relipidated TF. Description: cell-based or functional assay. This is another data set of the same source.
In the next test the target is T4, Expi293-derived TF-His (human (Example 17 does not restate the …, UniProt P13726 33-251)).
T4 construct: Glycosylated TF ECD-His6 from Expi293 cells; also called Expi293-derived TF protein; TF ECD-His6
Description: protein ELISA, plate coated with Expi293-derived TF-His, antibody titrated, HRP secondary, luminescence. On the technique in general: ELISA stands for enzyme-linked immunosorbent assay.

The target in test [4] is T5, human Tissue Factor on human TF-positive cells (human, UniProt P13726 33-295).
T5 construct: also called hTF; CD142
The experiment in a line: flow cytometry, antibody titration on HCT-116 cells (endogenous human TF), 4-parameter fit of MFI.
Description: as §1

In test [5] the target is T6, cynomolgus monkey TF ECD-His6 (cynomolgus monkey (Macaca fascicularis)).
T6 construct: Expi293-derived; also called TF-His; cTF
T6 chain: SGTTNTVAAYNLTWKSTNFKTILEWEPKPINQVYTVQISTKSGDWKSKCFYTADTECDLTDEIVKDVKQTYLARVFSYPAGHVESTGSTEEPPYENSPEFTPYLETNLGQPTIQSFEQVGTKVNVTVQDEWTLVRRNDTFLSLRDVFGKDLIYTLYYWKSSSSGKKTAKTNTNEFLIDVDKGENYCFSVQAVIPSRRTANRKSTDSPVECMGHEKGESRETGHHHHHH
Description: SPR (Biacore), TF-His over coupled antibody.
Description: (§2) Kinetic measurements for the anti-TF antibodies were conducted on an Octet QK384 (Pall ForteBio, Fremont, CA, USA) or a Biacore (GE Healthcare Bio-Sciences).
(§3) For the Biacore-based measurements, the antibody was covalently coupled to a CM5 or C1 chip using an amine-coupling kit (GE Healthcare Bio-Sciences). Association between the anti-TF antibodies and a five-point three-fold titration of TF-His starting at 25 to 500 nM was measured for 300 sec. Subsequently, dissociation between the anti-TF antibody and TF-His was measured for up to 1800 sec. Kinetic data was analyzed and fitted globally using a 1:1 binding model.

Test [6] addresses T7, human TF ECD-His6 (human, UniProt P13726 33-251).
T7 construct: Expi293-derived; Biacore used TF-His; also called TF-His; hTF
The experiment in a line: SPR (Biacore), TF-His over coupled antibody. (SPR reads the build-up and loss of mass on a sensor chip optically.)
Description: as §2, §3

The next test deals with T8, mouse TF ECD-His6 (mouse, UniProt P20352 29-251).
T8 construct: Expi293-derived; also called TF-His; mTF
Description: BLI (ForteBio Octet). Background: Biolayer interferometry detects binding as a change in optical thickness at a sensor tip.

Test [7] deals with T7, human TF ECD-His6. Description: BLI (ForteBio Octet).
Description: as §2
(§4) Briefly, ForteBio affinity measurements were performed by loading IgGs on-line onto AHC sensors. Sensors were equilibrated off-line in assay buffer for 30 min and then monitored on-line for 60 seconds for baseline establishment. Sensors with loaded IgGs were exposed to 100 nM antigen (human, cynomolgus, or mouse TF) for 3 min, afterwards they were transferred to assay buffer for 3 min for off-rate measurement. Alternatively, binding measurements were obtained by loading biotinylated TF monomer on SA sensors followed by exposure to 100 nM antibody Fab in solution. Kinetic data was analyzed and fitted using a 1:1 Langmuir binding model and the KD was calculated by dividing the koff by the kₒₙ.
Test [8] deals with T9, full-length mouse TF with a C-terminal FLAG tag on Flp-In-CHO cells (mouse, UniProt P20352 29-294).
T9 construct: also called CHO-mTF; mouse TF-positive CHO cells
Description: flow cytometry, antibody titration on CHO cells expressing mouse TF, 4-parameter fit of MFI.
Description: as §1

The target in test [9] is T9, full-length mouse TF with a C-terminal …. The experiment in a line: flow cytometry on CHO cells expressing mouse TF, MFI at 250 nM antibody.
Description: as §1
Test [10] has as its target T6, cynomolgus monkey TF ECD-His6. The experiment in a line: BLI (ForteBio Octet).
Description: as §2, §4
Test [11] has as its target T5, human Tissue Factor on human …. The experiment in a line: flow cytometry, antibody titration on HCT-116 cells (endogenous human TF), 4-parameter fit of MFI. The source holds these as a separate data set.
Description: as §1
For test [12], the target named is T9, full-length mouse TF with a C-terminal …. Description: flow cytometry, antibody titration on CHO cells expressing mouse TF, 4-parameter fit of MFI. This is another data set of the same source.
Description: as §1
Test [13] has the same target. Description: flow cytometry on CHO cells expressing mouse TF, MFI at 250 nM antibody. This is another data set of the same source.
Description: as §1

Description for E. coli-derived TF: (§5) Plates coated with Expi293- or E. coli-derived TF-His were incubated with increasing concentrations of antibodies.
Description for Expi293-derived TF-His: as §5
Description for mouse TF ECD-His6: as §2, §4

B1: 39A (antibody, human IgG1, V domains shown)
VH: QVQLVQSGAEVKKPGSSVKVSCKASGGTFSSNAIGWVRQAPGQGLEWMGSIIPIIGFANYAQKFQGRVTITADESTSTAYMELSSLRSEDTAVYYCARDSGYYYGASSFGMDVWGQGTTVTVSS
VL: EIVMTQSPATLSVSPGERATLSCRASQSVSSNLAWYQQKPGQAPRLLIYGASTRATGIPARFSGSGSGTEFTLTISSLQSEDFAVYYCEQYNNLPLTFGGGTKVEIK
notes: Human IgG1; also called antibody designated 39A
In the case of B1, the EC50 (in general, the concentration at which the effect is half-maximal) with E. coli-derived TF worked out at 0.34 nM. The midpoint of the response in test [1], the EC50, lay at 0.27 nM. Further, in the test with Relipidated TF [2], the “% Peak IIa at 10 nM Ab (TGA with 10 min antibody pre-incubation)” value came out at 11%, the “% Peak IIa at 50 nM Ab (TGA with 10 min antibody pre-incubation)” value was determined as 8%, the “% Peak IIa at 100 nM Ab (TGA with 10 min antibody pre-incubation)” value came to 6% and the “Lag Time at 10 nM Ab (TGA with 10 min antibody pre-incubation)” value was 20.9 min. Besides, in the test with Relipidated TF [2], the “Lag Time at 50 nM Ab (TGA with 10 min antibody pre-incubation)” value is 29 min, the “Lag Time at 100 nM Ab (TGA with 10 min antibody pre-incubation)” value is 32.1 min, the “Peak IIa at 10 nM Ab (TGA with 10 min antibody pre-incubation)” value is 30 nM and the “Peak IIa at 50 nM Ab (TGA with 10 min antibody pre-incubation)” value was 21 nM. Moreover, in the test with Relipidated TF [2], the “Peak IIa at 100 nM Ab (TGA with 10 min antibody pre-incubation)” value is 17 nM, the “ttPeak at 10 nM Ab (TGA with 10 min antibody pre-incubation)” value came out at 30.8 min, the “ttPeak at 50 nM Ab (TGA with 10 min antibody pre-incubation)” value stood at 39.7 min and the “ttPeak at 100 nM Ab (TGA with 10 min antibody pre-incubation)” value was found to be 43.2 min. In the test with Relipidated TF [3], the “% ETP at 10 nM Ab (TGA without antibody pre-incubation)” value was 58%, the “% Peak IIa at 10 nM Ab (TGA without antibody pre-incubation)” value stood at 24%, the “% Peak IIa at 50 nM Ab (TGA without antibody pre-incubation)” value stood at 8% and the “% Peak IIa at 100 nM Ab (TGA without antibody pre-incubation)” value is 6%. In the test with Relipidated TF [3], the “ETP at 10 nM Ab (TGA without antibody pre-incubation)” value is 1330 nM·min, the “Lag Time at 10 nM Ab (TGA without antibody pre-incubation)” value was 12.4 min, the “Lag Time at 50 nM Ab (TGA without antibody pre-incubation)” value is 33.1 min and the “Lag Time at 100 nM Ab (TGA without antibody pre-incubation)” value stood at 38.1 min. Besides, in the test with Relipidated TF [3], the “Peak IIa at 10 nM Ab (TGA without antibody pre-incubation)” value amounted to 84 nM, the “Peak IIa at 50 nM Ab (TGA without antibody pre-incubation)” value is 29 nM, the “Peak IIa at 100 nM Ab (TGA without antibody pre-incubation)” value came out at 22 nM and the “ttPeak at 10 nM Ab (TGA without antibody pre-incubation)” value is 20.7 min. In the test with Relipidated TF [3], the “ttPeak at 50 nM Ab (TGA without antibody pre-incubation)” value was 43.2 min and the “ttPeak at 100 nM Ab (TGA without antibody pre-incubation)” value turned out to be 48.3 min. The molecule also yielded a concentration for a half-maximal effect (EC50) in the test with Expi293-derived TF-His of 0.45 nM.

B2: 25A5 (antibody, human IgG1, V domains shown)
VH: QVQLVQSGAEVKKPGASVKVSCKASGYTFDVYGISWVRQAPGQGLEWMGWIAPYSGNTNYAQKLQGRVTMTTDTSTSTAYMELRSLRSDDTAVYYCARDAGTYSPFGYGMDVWGQGTTVTVSS
VL: DIQMTQSPSTLSASVGDRVTITCRASESISNWLAWYQQKPGKAPKLLIYKAYSLEYGVPSRFSGSGSGTEFTLTISSLQPDDFATYYCQQFQKLPPFTFGGGTKVEIK
notes: Human IgG1; also called antibody designated 25A5
Take B2: the EC50 in test [4] was found to be 0.088 nM; in [8], 11 nM. In addition, the Kd (in general, the constant that tells how readily two partners part at equilibrium) in test [5] amounted to 0.04 nM; in the test with human TF ECD-His6 [6], 0.08 nM; with mouse TF ECD-His6 it was 188 nM; with human TF ECD-His6 [7], 0.64 nM. Besides, in [9], the “MFI at 250 nM” value stood at 8e+06.

B3: 25G (antibody, human IgG1, V domains shown)
VH: B2 VH with D30R, V31S, I51V, S55N, F106Y
VL: B2 VL with E27Q, N31S, Y52S, Y56S, K93S
notes: Human IgG1; also called antibody designated 25G
For the molecule B3, the results for the EC50 in [4] and in [8] were 0.134 nM and 3.9 nM, respectively. Besides, the Kd in [5] stood at 18 nM; with human TF ECD-His6 [6] it was 23 nM; in test [10], 17.5 nM; with mouse TF ECD-His6, 114 nM; in the test with human TF ECD-His6 [7], 21.9 nM. Further, the “MFI at 250 nM” value in test [9] came to 1.6e+07.

B4: 43B (antibody, human IgG1, V domains shown)
VH: QVQLQESGPGLVKPSQTLSLTCTVSGGSISSGQYWSWIRQHPGKGLEWIGEIYYSGSTRYNPSLKSRVTISVDTSKNQFSLKLSSVTAADTAVYYCARDAPYYYGGGYYYYMDVWGKGTTVTVSS
VL: EIVLTQSPGTLSLSPGERATLSCRASQSVSSSYLAWYQQKPGQAPRLLIYGASSRATGIPDRFSGSGSGTDFTLTISRLEPEDFAVYYCQQVGVVPYTFGGGTKVEIK
notes: Human IgG1; also called antibody designated 43B
With B4, the Kd in test [5] was 5.64 nM; with human TF ECD-His6 [6], 1.75 nM; in [10], 3.4 nM; in the test with mouse TF ECD-His6 it was 161 nM; in the test with human TF ECD-His6 [7], 2.4 nM. For the same molecule, in test [11], the half-maximal effective concentration (EC50) was 0.559 nM.

B5: 43D (antibody, human IgG1, V domains shown)
VH: QVQLQQWGAGLLKPSETLSLTCAVYGGSLSGYYWSWIRQPPGKGLEWIGEIGASGSTRYNPSLKSRVTISVDTSKNQFSLKLSSVTAADTAVYYCARDTPYYYEGGYYYYMDVWGKGTTVTVSS
VL: B4 VL
notes: Human IgG1; also called antibody designated 43D
With B5, the EC50 in test [12] was 2.9 nM; in test [11] it was 0.147 nM. For the same molecule, the Kd in [5] was found to be 5.66 nM; with human TF ECD-His6 [6], 2.09 nM; in test [10], 4.12 nM; with mouse TF ECD-His6 it was 281 nM; in the test with human TF ECD-His6 [7] it was 3.84 nM. In addition, the “MFI at 250 nM” value in test [13] was determined as 1.3e+07.

B6: 43B1 (antibody, human IgG1, V domains shown)
VH: B4 VH
VL: B4 VL with Q27E, S30D, S54T, A56Q, V92A
notes: Human IgG1; also called antibody designated 43B1
As for B6, the EC50 in test [12] came to 255 nM. Moreover, the “MFI at 250 nM” value in test [13] was 5.3e+06. Besides, the Kd with mouse TF ECD-His6 came out at 72.1 nM.

B7: 43B7 (antibody, human IgG1, V domains shown)
VH: B4 VH
VL: B4 VL with Q27E, S30D, S53D, V92D
notes: Human IgG1; also called antibody designated 43B7
For B7, the dissociation constant (Kd) came out at 0.24 nM in [5]; 0.14 nM with human TF ECD-His6 [6]; 0.94 nM in [10]; 360 nM with mouse TF ECD-His6; 0.86 nM with human TF ECD-His6 [7]. Moreover, the “MFI at 250 nM” value in [13] stood at 800000. Besides, the half-maximal effective concentration (EC50) in [11] turned out to be 0.255 nM.
